Measurements taken from patent US20250327097A1, “ORGANISMS PRODUCING LESS CROTONIC ACID” (Global Bioenergies, priority 2021, published 2025).
Residue numbers refer to the chain shown, from its start. In names and notes the source's numbering stands.

B1: I283T-N285P-E286A-N287T-Q290E-S322T-N388M-K394R-C430A-L432F-L434W-S436N-dG462 (protein)
chain: MFLKSLREQINLLKRQGDLRIINRPVDSYLEAAAIIRRSTETKAPVPLMTNIKGYPGCSIVGGLAALSSNPEYPLSRVAMSLGLSTTASAQSIVQYLIDGLKKTPYLPVEIDSNSAPCKQNILRGEDASLAHFPIPQVHQHDGNRYVNTWGVFIVESPDGQWCNWSIQRVQYLNDRQMIALVFPSQHISDIWEEWVKIGKPMPYALVQGCEPIVPYIAGLPLLERNVNEAEYIGALYGKGIEVVKCETHDLRVPASSEVVIEGYFAITREGVEGPFGEFAGYTPPATSLEPILSITAISWQDDPIWPVVAEGKPVDEYHTCTGIGDAAAIQNVLLTANLPVSFVWVPLYSACHLMIVSINRHWRQTHPDLTSEQLTKKVGDVIHQTRMSIKLPRIVVLDDDVDPADTESLLWALATRIHPERKRYFYESAIFPWLNCYSEEERHNRKGKRVIIDALLPENHGAISSFDYAYPDDIKQRVLMHWETDFSHD
B2: I283T-N285P-N287T-Q290E-S322T-N388M-K394R-C430A-L432F-L434W-S436N-K447T-dG462 (protein)
chain: B1 chain with A286E, K447T
B3: I283T-N285P-N287T-Q290E-S322T-R361K-N388M-K394R-C430A-L432F-L434W-S436N-dG462 (protein)
chain: B1 chain with A286E, R361K
B4: I283T-N285P-N287T-Q290E-S322T-N388M-K394R-C430A-I431P-L432F-L434W-S436N-dG462 (protein)
chain: B1 chain with A286E, I431P
B5: I283T-N285P-N287T-Q290E-S322T-N388M-K394R-C430A-L432F-L434W-S436N-Y438M-dG462 (protein)
chain: B1 chain with A286E, Y438M
B6: I283T-N285P-N287T-Q290E-S322T-N388M-K394R-S429V-C430A-L432F-L434W-S436N-dG462 (protein)
chain: B1 chain with A286E, S429V
B7: D27N-I283T-N285P-N287T-Q290E-S322T-N388M-K394R-C430A-L432F-L434W-S436N-G448T-dG462 (protein)
chain: B1 chain with D27N, A286E, G448T
B8: I283T-N285P-N287T-Q290E-S322T-N388M-K394R-E421W-C430A-L432F-L434W-S436N-dG462 (protein)
chain: B1 chain with A286E, E421W
B9: I283T-N285P-N287T-Q290E-S322T-N388M-K394R-C430A-L432F-L434W-S436N-S439P-dG462 (protein)
chain: B1 chain with A286E, S439P
B10: I283T-N285P-N287T-Q290E-S322T-N388M-K394R-C430A-I431A-L432F-L434W-S436N-dG462 (protein)
chain: B1 chain with A286E, I431A
B11: I283T-N285P-N287T-Q290E-S322T-M355V-N388M-K394R-C430A-L432F-L434W-S436N-dG462 (protein)
chain: B1 chain with A286E, M355V
B12: I283T-N285P-N287T-Q290E-S322T-N388M-K394R-C430A-L432F-L434W-S436N-C437T-dG462 (protein)
chain: B1 chain with A286E, C437T
B13: I283T-N285P-N287T-Q290E-S322T-N388M-K394R-E421L-C430A-L432F-L434W-S436N-dG462 (protein)
chain: B1 chain with A286E, E421L
B14: I283T-N285P-N287T-Q290E-S322T-N388M-K394R-C430A-L432F-L434W-S436N-Y438W-dG462 (protein)
chain: B1 chain with A286E, Y438W
B15: I283T-N285P-N287T-Q290E-S322T-N388M-K394R-C430A-L432F-L434W-S436N-C437M-dG462 (protein)
chain: B1 chain with A286E, C437M
B16: I283T-N285P-N287T-Q290E-S322T-N388M-K394R-i421aD-C430A-L432F-L434W-S436N-dG462 (protein)
chain: B1 chain with A286E
B17: I283T-N285P-N287T-Q290E-S322T-N388M-K394R-C430A-L432F-L434W-S436N-C437I-dG462 (protein)
chain: B1 chain with A286E, C437I
B18: I283T-N285P-N287T-Q290E-S322T-N388M-K394R-C430A-I431C-L432F-L434W-S436N-dG462 (protein)
chain: B1 chain with A286E, I431C
B19: I283T-N285P-N287T-Q290E-S322T-N388M-K394R-C430A-I431N-L432F-L434W-S436N-dG462 (protein)
chain: B1 chain with A286E, I431N
B20: I283T-N285P-N287T-Q290E-S322T-M355C-N388M-K394R-C430A-L432F-L434W-S436N-dG462 (protein)
chain: B1 chain with A286E, M355C
B21: I283T-N285P-N287T-Q290E-S322T-N388M-K394H-C430A-L432F-L434W-S436N-dG462 (protein)
chain: B1 chain with A286E, R394H
B22: I283T-N285P-N287T-Q290E-S322T-N388M-K394R-C430A-L432F-L434W-S436N-G448C-dG462 (protein)
chain: B1 chain with A286E, G448C
B23: I283T-N285P-N287T-Q290E-S322T-N388M-K394R-E421F-C430A-L432F-L434W-S436N-dG462 (protein)
chain: B1 chain with A286E, E421F
B24: I283T-N285P-N287T-Q290E-S322T-N388M-K394R-C430A-L432F-L434W-S436N-C437L-dG462 (protein)
chain: B1 chain with A286E, C437L
B25: N287V-N388M-K394R-C430N-L432F-L434W-S436N (protein)
chain: B1 chain with T283I, P285N, A286E, T287V, E290Q, T322S, A430N
B26: I283T-N285P-N287T-Q290E-S322T-M355T-N388M-K394R-C430A-L432F-L434W-S436N-dG462 (protein)
chain: B1 chain with A286E, M355T
B27: I283T-N285P-N287T-Q290E-S322T-N388M-K394R-C430S-L432F-L434W-S436N-dG462 (protein)
chain: B1 chain with A286E, A430S
B28: I283T-N285P-N287T-Q290E-S322T-N388S-K394R-C430A-L432F-L434W-S436N-dG462 (protein)
chain: B1 chain with A286E, M388S
B29: I283T-N285P-N287T-Q290E-S322T-N388M-K394R-C430A-I431K-L432F-L434W-S436N-dG462 (protein)
chain: B1 chain with A286E, I431K
B30: I283T-N285P-N287T-Q290E-S322T-N388M-K394R-H419A-C430A-L432F-L434W-S436N-dG462 (protein)
chain: B1 chain with A286E, H419A
B31: I283T-N285P-N287T-Q290E-S322T-N388M-K394R-C430A-I431T-L432F-L434W-S436N-dG462 (protein)
chain: B1 chain with A286E, I431T
B32: I283T-N285P-N287T-Q290E-S322T-N388M-K394R-H419P-C430A-L432F-L434W-S436N-dG462 (protein)
chain: B1 chain with A286E, H419P
B33: P284E-N388M-K394R-C430N-L432F-L434W-S436N (protein)
chain: B1 chain with T283I, P284E, P285N, A286E, T287N, E290Q, T322S, A430N
B34: N332H-N388M-K394R-C430N-L432F-L434W-S436N (protein)
chain: B1 chain with T283I, P285N, A286E, T287N, E290Q, T322S, N332H, A430N

system: 3-methylcrotonic acid; format: biochemical, Yersinia frederiksenii; design: key: “+” representing a low increase in activity; “++++” representing a high increase in activity

| Molecule | Activity relative to WT |
| --- | --- |
| B1 | ++++ |
| B2 | ++++ |
| B3 | ++++ |
| B4 | ++++ |
| B5 | ++++ |
| B6 | ++++ |
| B7 | ++++ |
| B8 | ++++ |
| B9 | ++++ |
| B10 | ++++ |
| B11 | ++++ |
| B12 | ++++ |
| B13 | ++++ |
| B14 | ++++ |
| B15 | ++++ |
| B16 | ++++ |
| B17 | ++++ |

| Molecule | Activity relative to WT |
| --- | --- |
| B18 | ++++ |
| B19 | ++++ |
| B20 | ++++ |
| B21 | ++++ |
| B22 | ++++ |
| B23 | ++++ |
| B24 | ++++ |
| B25 | + |
| B26 | ++++ |
| B27 | ++++ |
| B28 | ++++ |
| B29 | ++++ |
| B30 | ++++ |
| B31 | ++++ |
| B32 | ++++ |
| B33 | + |
| B34 | + |
